Results: the supplement of paper PMC10567573

B1: ZNF207 (parent)
chain: FQPQPVQPQQGYIPPMAQPGLPPV
B2: WDFY1 (parent)
chain: LLIPKEDGVITASEDRTIRVWLKR

Variants of: B1
Experiment: protein stability index of a GFP-peptide fusion (GPS, HEK-293T) (PSI 1-6); higher = more stable
Settings: c terminus: a fixed tail appended
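Also: lentivirally expressed fusions sorted by FACS into six bins by GFP to DsRed ratio, PSI derived from sequencing read proportions per bin multiplied by bin number.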

Protein stability index: each site, then its substitutions
P15: L 2.72; M 2.62; N 3.45; Q 3.09; R 2.97; S 2.87; T 3.14; V 3.23; W 1.73; Y 2.66
M16: C 3.08; D 3.7; E 3.54; F 2.43; G 3.49; I 3.3; K 3.21; N 3.48; R 2.97; S 3.5; V 3.64; W 2.06; Y 2.82
A17: C 3.27; D 3.35; E 3.42; F 2.5; G 2.98; H 3.12; I 3.17; K 3.04; L 2.85; M 3.4; N 3.59; P 3.04; Q 3.39; R 3.15; S 3.86; T 3.22; V 2.96; W 1.93; Y 2.25
Q18: C 2.37; K 2.88; L 2.91; M 2.7; N 3.11; R 3.37; S 2.95; W 2.03
P19: A 3.32; C 3.1; F 2.38; G 3.12; H 3.19; L 2.7; S 3.19
G20: C 2.93; D 2.89; E 3.23; K 2.27; L 3.15; M 2.75; Q 3.46; R 3.33; S 3.24; V 3.72; W 1.7
L21: C 3.64; D 4.12; E 4.13; F 2.66; G 3.24; K 3.48; M 3.68; R 3.38; V 2.73; W 2.26
P22: A 3.37; C 2.38; D 3.06; E 3.08; F 2.54; G 2.74; H 2.83; I 2.68; K 3.4; L 2.99; M 2.4; N 2.74; Q 3.33; R 2.88; S 2.13; T 2.7; V 2.72; W 1.85; Y 2.29
P23: A 3.4; C 2.91; D 3.28; E 3.07; F 1.88; G 2.27; H 2.77; I 2.65; K 2.95; L 3.04; M 2.9; N 2.69; Q 3.14; R 3.02; S 3.19; T 2.89; V 3.13; W 1.7; Y 2.42
V24: C 2.95; D 3.9; E 3.75; F 2.35; G 3.1; H 2.71; I 3.26; K 2.92; L 2.44; M 2.8; N 2.67; Q 3.33; R 3.38; S 2.93; W 1.8; Y 2.4

Variants of: B2
Experiment: as above
Settings: c terminus: a fixed tail appended

Protein stability index: each site, then its substitutions
L1: A 2.5; C 2.35; D 3.54; E 3.2; F 2.24; H 2.83; I 2.1; K 2.74; M 3.12; N 3.1; P 4.03; Q 2.94; R 2.73; S 2.93; T 3.62; V 2.56; W 1.73; Y 2.55
L2: A 2.88; C 2.5; D 3.47; E 3.8; F 1.25; G 2.37; H 1.68; I 2.22; K 3.31; M 2.27; N 2.77; P 2.66; Q 3.1; R 1.93; S 2.78; T 2.08; V 2.69; W 1.76; Y 1.82
I3: A 3.62; C 2.24; D 3.09; E 3.36; F 2.04; G 2.97; H 2.45; K 3.17; L 2.76; M 1.95; N 3.77; Q 2.66; R 2.71; T 2.91; W 1.87; Y 1.89
P4: A 2.13; C 2.28; D 2.82; F 2.78; G 1.74; H 1.75; I 1.52; L 1.79; M 1.88; N 2.19; Q 1.5; R 2.46; S 2.54; T 1.89; V 2.67; W 2.35; Y 1.51
K5: A 2.13; C 2.26; D 2.41; E 1.58; F 1.4; G 3.24; H 1.65; I 2.28; L 1.36; N 2.15; Q 1.57; R 1.44; S 1.2; T 1.62; W 1.41; Y 2.91
E6: A 2.59; C 2.67; D 2.82; F 2.25; G 2.56; H 2.67; I 1.98; K 2.18; L 3.18; M 2.65; N 2.58; P 2.43; Q 3.73; R 1.63; S 2.06; T 1.77; V 1.42; W 1.66; Y 2.4
D7: A 2.06; C 1.75; E 3.03; F 2.7; G 1.77; H 1.42; I 1.28; K 1.56; L 2.05; M 1.44; N 1.58; P 1.66; Q 2.1; S 1.39; T 2.37; V 1.8; W 1.33; Y 1.3
G8: C 2.23; D 2.27; E 1.31; F 1.48; H 1.78; I 1.41; K 1.99; L 1.03; M 1.14; N 2.07; P 2.41; Q 1.58; R 2.3; S 1.95; T 2.55; V 1.58; W 1.94; Y 1.74
V9: A 2.58; C 1.65; E 2.6; F 1.81; G 2.4; H 2.48; I 2.77; K 1.69; M 2.21; N 2.44; P 3.22; Q 2.56; R 2.33; S 2.74; T 2.14; W 2.22; Y 1.02
I10: A 2.4; C 1.94; D 2.83; E 2.68; F 2.42; G 2.76; H 1.94; K 2.17; L 2.21; M 2.14; N 2.54; P 4.2; Q 2.62; R 2.07; S 2.07; T 2.47; Y 1.91
T11: A 2.43; C 2.7; E 2.26; F 2.4; G 1.98; H 2.56; I 2.15; K 2.03; M 1.5; N 1.82; P 2.65; Q 1.72; R 3.1; S 2.42; V 2.19; W 1.72
A12: C 1.77; D 2.39; F 1.91; G 1.93; H 2.08; I 1.92; K 2.19; L 2.1; N 2.56; P 2.76; Q 2.18
